Measured values: patent publication US20220073922, “Aptamers and use thereof” (Aptitude Medical Systems, Inc., published 2022)

Tests used:
[1] = target: T1, VEGF-121 (VEGFA isoform 121) (Homo sapiens, UniProt P15692 SEQ:1-121); experiment: flow; details: chain copies: 2 (inferred); label: 5'-biotin
Angiopoietin-2 (Ang2) [2] = target: T2, Angiopoietin-2 (Ang2) (Homo sapiens, UniProt O15123 O15123:19-496); experiment: flow; details: tags: His tag, R&D Systems 623-AN; label: 5'-biotin
Angiopoietin-2 (Ang2) [3] = target: T2, Angiopoietin-2 (Ang2); experiment: competition; blocks Ang2-Tie2; details: tags: His tag, R&D Systems 623-AN; label: 5'-biotin
Method: (§4) Ang2-bound Tie2 and anti-Ang2 aptamers were partitioned by magnetic separation, and the Ang2-bound Tie2 were subsequently labeled via a fluorescent anti-human antibody. The fraction of Ang2-bound receptor was quantified by flow cytometry (BD Accuri C6 Plus). Raw binding data were corrected for nonspecific background binding and normalized to the fluorescence intensity from the sample with 1 nM Tie2 but without anti-Ang2 aptamer competition. The fraction of bound receptor was plotted as a function of anti-Ang2 aptamer concentration and a non-linear curve-fitting algorithm (dose-response inhibition) was used to extract IC₅₀ values from the data (FIG. 4C).

[4] = target: T1, VEGF-121 (VEGFA isoform 121); experiment: competition; blocks VEGF-R1 and VEGF-R2 binding; PBSMCT, 37 C; details: chain copies: 2 (inferred); label: biotin; stem-loop with bulges
Method: (§1) Three different recombinant VEGF receptors (two VEGF-R1 and one VEGF-R2) were tested (R&D Systems, 3516-FL, 321-FL, and 357-KD). […] VEGF-bound receptors and anti-VEGF aptamers were partitioned by magnetic separation, and the VEGF-bound VEGF receptors were subsequently labeled via a fluorescent anti-human antibody. The fraction of VEGF-bound receptor was quantified by flow cytometry (BD Accuri C6 Plus). Raw binding data were corrected for nonspecific background binding and normalized to the fluorescence intensity from the sample with 1 nM VEGF receptor but without anti-VEGF aptamer competition. The fraction of bound receptor was plotted as a function of anti-VEGF aptamer concentration and a non-linear curve-fitting algorithm (dose-response inhibition) was used to extract IC₅₀ values from the data (FIG. 2).

[5] = target: T3, VEGF-165 (VEGFA isoform 165) (Homo sapiens); experiment: as above; details: chain copies: 2 (inferred); label: biotin; stem-loop with bulges
T3 chain: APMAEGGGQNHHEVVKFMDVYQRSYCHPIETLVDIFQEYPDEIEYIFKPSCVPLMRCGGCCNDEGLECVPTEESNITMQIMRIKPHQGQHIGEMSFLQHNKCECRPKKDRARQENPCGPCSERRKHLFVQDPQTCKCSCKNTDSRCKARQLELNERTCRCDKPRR
Method: as §1

[6] = target: T1, VEGF-121 (VEGFA isoform 121); experiment: flow; PBSMCT, 37 C; Table 7 gives a different value; details: chain copies: 2 (inferred); label: biotin; stem-loop with bulges
Method: (§2) Truncated and modified variants of the anti-VEGF aptamers of the present disclosure were prepared by LGC Biosearch Technologies (Novato, Calif.), and their binding affinity to corresponding targets were examined. Briefly, the equilibrium binding constants of the enriched libraries were measured using magnetic bead partitioning. Biotinylated anti-VEGF aptamers were conjugated to the 1 μm streptavidin-coated MyOne Streptavidin Cl magnetic beads (Thermo Fisher Scientific, 65002). Binding assays were performed by incubating fixed concentration of anti-VEGF aptamer (0.01 nM) and target protein at concentrations ranging from 10⁻¹² to 10⁻⁸ M in PBSMCT buffer (DPBS, pH 7.2 with 2.5 mM MgCl₂, 1 mM CaCl₂) and 0.01% TWEEN-20) at 37° C. for 90 minutes. Bound target protein was partitioned by magnetic separation and subsequently labeled via fluorescent anti-VEGF or anti-His-tag antibody. The fraction of anti-VEGF aptamer bound was quantified by flow cytometry (BD Accuri C6 Plus). Raw binding data were corrected for nonspecific background binding of target protein to empty magnetic beads. The fraction of bound anti-VEGF aptamer was plotted as a function of protein concentration and a non-linear curve-fitting algorithm (Langmuir one-site binding model) was used to extract equilibrium binding constants (KD values) from the data (FIG. 1).

[7] = target: T3, VEGF-165 (VEGFA isoform 165); experiment: as above; details: chain copies: 2 (inferred); label: biotin; stem-loop with bulges
Method: as §2

[8] = target: T1, VEGF-121 (VEGFA isoform 121); experiment: flow; PBSMCT, 37 C; Table 6 gives a different value; details: chain copies: 2 (inferred); label: biotin; stem-loop with bulges
Method: as §2

[9] = target: T3, VEGF-165 (VEGFA isoform 165); experiment: as above; details: chain copies: 2 (inferred); label: biotin; stem-loop with bulges
Method: as §2

Angiopoietin-2 (Ang2) [10] = target: Angiopoietin-2 (Ang2) (Mus musculus, UniProt O35608 O35608:19-496); experiment: flow; PBSMCT, 37 C; details: tags: R&D Systems 7186-AN; label: biotin
Method: (§3) Various mutations and truncated variants of a representative anti-Ang2 aptamer (AMS0525) were obtained and their binding affinity to Ang2 were measured using magnetic bead partitioning. Biotinylated anti-Ang2 aptamers were conjugated to the 1 μm streptavidin-coated MyOne Streptavidin Cl magnetic beads (Thermo Fisher Scientific, 65002). Binding assays were performed by incubating fixed concentration of aptamer (0.01 nM) and Ang2 protein at concentrations ranging from 10⁻¹² to 10⁻⁸ M in PBSMCT buffer (DPBS, pH 7.2 with 2.5 mM MgCl₂, 1 mM CaCl₂) and 0.01% TWEEN-20) at 37° C. for 90 minutes. Bound target protein was partitioned by magnetic separation and subsequently labeled via fluorescent anti-His-tag antibody. The fraction of anti-Ang2 aptamer bound was quantified by flow cytometry (BD Accuri C6 Plus). Raw binding data were corrected for nonspecific background binding of target protein to empty magnetic beads. The fraction of bound anti-Ang2 aptamer was plotted as a function of protein concentration and a non-linear curve-fitting algorithm (Langmuir one-site binding model) was used to extract equilibrium binding constants (KD values) from the data (FIG. 4A).

Angiopoietin-2 (Ang2) [11] = target: T2, Angiopoietin-2 (Ang2); experiment: flow; PBSMCT, 37 C; details: tags: His tag, R&D Systems 623-AN; label: biotin
Method: as §3

Angiopoietin-1 (Ang1) = Angiopoietin-1 (Ang1) (Homo sapiens, UniProt Q15389 Q15389:16-498); experiment: flow; does not recognize human Ang1; details: tags: R&D Systems 923-AN; label: biotin
Angiopoietin-2 (Ang2) [12] = target: T2, Angiopoietin-2 (Ang2); experiment: competition; blocks Ang2-Tie2 binding; PBSMCT, 37 C; details: tags: His tag, R&D Systems 623-AN; label: biotin
Method: as §4

[13] = target: T1, VEGF-121 (VEGFA isoform 121); experiment: flow; PBSMCT, 37 C; details: chain copies: 2 (inferred); label: biotin; stem-loop with bulges
Method: as §2

[14] = target: T3, VEGF-165 (VEGFA isoform 165); experiment: flow; PBSMCT, 37 C; details: chain copies: 2 (inferred); label: biotin; stem-loop with bulges
Method: as §2

T2 sequence (O15123 19-496, one chain of several): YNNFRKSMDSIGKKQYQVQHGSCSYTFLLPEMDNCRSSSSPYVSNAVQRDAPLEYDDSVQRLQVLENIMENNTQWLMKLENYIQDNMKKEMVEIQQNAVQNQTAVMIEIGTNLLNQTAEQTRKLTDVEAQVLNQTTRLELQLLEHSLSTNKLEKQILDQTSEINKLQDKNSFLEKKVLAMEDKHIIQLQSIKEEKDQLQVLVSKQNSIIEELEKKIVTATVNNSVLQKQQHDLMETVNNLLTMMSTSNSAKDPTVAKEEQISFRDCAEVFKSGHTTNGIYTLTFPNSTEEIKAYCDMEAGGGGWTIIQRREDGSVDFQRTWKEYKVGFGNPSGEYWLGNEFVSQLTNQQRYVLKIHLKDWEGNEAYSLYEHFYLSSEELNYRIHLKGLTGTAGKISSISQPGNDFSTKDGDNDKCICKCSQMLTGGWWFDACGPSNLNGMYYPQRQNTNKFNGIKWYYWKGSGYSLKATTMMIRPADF
Angiopoietin-2 (Ang2) (Mus musculus, UniProt O35608 O35608:19-496), sequence (O35608 19-496, one chain of several): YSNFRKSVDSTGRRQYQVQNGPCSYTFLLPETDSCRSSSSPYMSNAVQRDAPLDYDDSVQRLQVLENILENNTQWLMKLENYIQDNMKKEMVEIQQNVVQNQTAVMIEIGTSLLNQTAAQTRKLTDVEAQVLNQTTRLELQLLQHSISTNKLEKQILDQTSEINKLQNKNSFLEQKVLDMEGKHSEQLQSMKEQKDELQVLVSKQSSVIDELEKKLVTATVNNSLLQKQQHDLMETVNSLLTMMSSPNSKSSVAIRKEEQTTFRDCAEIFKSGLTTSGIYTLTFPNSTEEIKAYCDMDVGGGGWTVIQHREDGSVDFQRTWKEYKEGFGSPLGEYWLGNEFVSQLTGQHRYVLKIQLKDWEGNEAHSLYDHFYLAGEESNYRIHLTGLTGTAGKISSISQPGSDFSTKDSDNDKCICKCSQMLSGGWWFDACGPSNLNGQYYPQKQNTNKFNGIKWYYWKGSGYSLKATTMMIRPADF
Angiopoietin-1 (Ang1), sequence (Q15389 16-498, one chain of several): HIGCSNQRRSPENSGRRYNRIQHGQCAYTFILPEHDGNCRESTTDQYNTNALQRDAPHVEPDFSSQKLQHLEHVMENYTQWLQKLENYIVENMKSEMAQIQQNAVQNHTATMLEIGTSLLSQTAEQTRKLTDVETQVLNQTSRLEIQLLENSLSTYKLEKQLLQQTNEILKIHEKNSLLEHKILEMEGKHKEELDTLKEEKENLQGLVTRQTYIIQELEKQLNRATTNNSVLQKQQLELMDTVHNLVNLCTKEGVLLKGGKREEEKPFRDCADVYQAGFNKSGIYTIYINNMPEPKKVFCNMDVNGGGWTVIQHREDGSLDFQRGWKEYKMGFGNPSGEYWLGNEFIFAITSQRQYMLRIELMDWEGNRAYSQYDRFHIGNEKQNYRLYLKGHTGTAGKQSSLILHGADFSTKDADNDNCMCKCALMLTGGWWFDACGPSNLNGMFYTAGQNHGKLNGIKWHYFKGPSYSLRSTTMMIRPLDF

B1: AMSB103 (ssRNA)
RNA: CGCUAGAUGGCUAACACUAUUGUGGAGAUGCACUAGCGCGCAUAGAUAAGCCAACAAACGUACAUUCUCUGUUAGUAUUUUCUGCG
modifications: 2'-F all positions
Kd [1]: 39 pM
Kd (Angiopoietin-2 (Ang2) [2]): 29 pM
IC50 (Angiopoietin-2 (Ang2) [3]): < 100 pM

CGUGGAGAUGCAUUCUGUCGAAGAUUGGCUAACACG (ssRNA, 2'-F all positions) [AMS0426]
IC50 [4]: ~100 pM
IC50 [5]: ~100 pM
Kd [6]: 214 pM
Kd [7]: 349 pM
Kd [8]: 86 pM
Kd [9]: 151 pM

CGCAUAGAUAAGCCAACAAACGUACAUUCUCUGUUAGUAUUUUCUGCG (ssRNA, 2'-F all positions) [AMS0526]
Kd (Angiopoietin-2 (Ang2) [10]): < 100 pM
Kd (Angiopoietin-2 (Ang2) [11]): 32 pM
binding result (Angiopoietin-1 (Ang1)): no binding
IC50 (Angiopoietin-2 (Ang2) [12]): 83.9 pM

CGCUAGAUGGCUAACACUAUUGUGGAGAUGCACUAGCG (ssRNA, 2'-F all positions) [AMS0427]
Kd [13]: 45 pM
Kd [14]: 91 pM
IC50 [4]: ~100 pM
IC50 [5]: ~100 pM
